The values below come from the supplement of paper PMC7125110.

± gives the standard error. For some of these results: This sample holds only a part of the variants without activity.

The chains are these.
B1: glmS ribozyme (parent)
chain: AUAAAAGCGCCAGAACUACAGAAAUGUAGUUGACGAGGAGGAGGUUUAUCGAAUUUUCGGCGGAUGCCUCCAAA

Conditions in all cases: with glucosamine-6-phosphate
In data set [1] the parent is B1. In words: kcat; higher = faster cleavage; RNA array. In a few lines: (§1)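 Barcoded ribozyme variants, transcribed in situ by E. coli RNA polymerase on sequenced MiSeq chips, were followed via a hybridised Cy3 probe at 37 °C. Glucosamine-6-phosphate ranged from 40 μM to 10 mM in HEPES/KCl/Mg(OAc)2 buffer. kobs came from decay fits to per-tile medians, and kcat and KM from weighted Michaelis–Menten fits.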

In data set [2] the parent is B1. Briefly: KM; higher = weaker cofactor use; RNA array. In a few lines:
as §1

In data set [3] the parent is B1. In words: self-cleavage kobs at 40 uM GlcN6P; higher = faster cleavage; RNA array. The essentials: as §1
Data set [4] covers variants of B1. In words: self-cleavage kobs at 160 uM GlcN6P; higher = faster cleavage; RNA array. The essentials: as §1
Data set [5] covers variants of B1. Briefly: self-cleavage kobs at 640 uM GlcN6P; higher = faster cleavage; RNA array. The essentials: as §1
The variants in data set [6] derive from B1. Briefly: self-cleavage kobs at 2500 uM GlcN6P; higher = faster cleavage; RNA array. In a few lines: as §1
In data set [7] the parent is B1. Briefly: self-cleavage kobs at 10000 uM GlcN6P; higher = faster cleavage; RNA array. The essentials:
as §1

Broadly, the kcat is the number of substrate molecules converted per active site and unit of time at saturation. In general, KM refers to the concentration of substrate that gives half-maximal velocity. For A53C G60A, the catalytic constant (kcat) in data set [1] stood at 2.08e-05 ± 2.9e-06 s⁻¹. Also, the Michaelis constant (KM) in data set [2] stood at 7110 ± 2300 µM. In addition, the “self-cleavage kobs at 40 uM GlcN6P” value in data set [3] is less than 1e-05 s⁻¹. The “self-cleavage kobs at 160 uM GlcN6P” value in data set [4] was less than 1e-05 s⁻¹.

Consider A12U C71G, for which, in data set [1], the kcat came out at 0.00158 ± 0.00072 s⁻¹. For the same variant, the “self-cleavage kobs at 40 uM GlcN6P” value in data set [3] is 0.000203 ± 2.3e-05 s⁻¹. Besides, the “self-cleavage kobs at 160 uM GlcN6P” value in data set [4] worked out at 0.000316 ± 5.2e-05 s⁻¹. For the same variant, in data set [5], the “self-cleavage kobs at 640 uM GlcN6P” value amounted to 0.00125 ± 0.00015 s⁻¹. The “self-cleavage kobs at 2500 uM GlcN6P” value in data set [6] turned out to be 0.000947 ± 0.00021 s⁻¹. The “self-cleavage kobs at 10000 uM GlcN6P” value in data set [7] amounted to 0.00305 ± 0.00048 s⁻¹.

Turning to A53C C68G, the turnover number (kcat) in data set [1] is less than 1e-05 s⁻¹.

In the case of A14U A15G C34G C50A G62U, the kcat in data set [1] turned out to be 1.29e-05 ± 5.5e-06 s⁻¹.

Turning to G13C C67U, the turnover number (kcat) in data set [1] amounted to 4.46e-05 ± 7.3e-06 s⁻¹. In addition, the “self-cleavage kobs at 2500 uM GlcN6P” value in data set [6] was found to be 4.34e-05 ± 1.3e-05 s⁻¹. Further, the “self-cleavage kobs at 10000 uM GlcN6P” value in data set [7] is 4.04e-05 ± 7.8e-06 s⁻¹.

As to A6U A64G, the kcat in data set [1] worked out at 0.000266 ± 4.3e-05 s⁻¹. The KM in data set [2] was 1910 ± 590 µM. Moreover, in data set [5], the “self-cleavage kobs at 640 uM GlcN6P” value turned out to be 7.26e-05 ± 7.4e-06 s⁻¹. In data set [6], the “self-cleavage kobs at 2500 uM GlcN6P” value was 0.000128 ± 1.6e-05 s⁻¹. The “self-cleavage kobs at 10000 uM GlcN6P” value in data set [7] came out at 0.00025 ± 2.8e-05 s⁻¹.

Turning to A15U U56G, the kcat in data set [1] was 0.00786 ± 0.0027 s⁻¹. Besides, the KM in data set [2] came out at 3290 ± 1500 µM. Further, the “self-cleavage kobs at 40 uM GlcN6P” value in data set [3] was 0.000149 ± 2.5e-05 s⁻¹. Further, the “self-cleavage kobs at 160 uM GlcN6P” value in data set [4] was found to be 0.000265 ± 5e-05 s⁻¹. Moreover, in data set [5], the “self-cleavage kobs at 640 uM GlcN6P” value was determined as 0.00143 ± 0.00018 s⁻¹. Further, the “self-cleavage kobs at 2500 uM GlcN6P” value in data set [6] turned out to be 0.00363 ± 0.00053 s⁻¹. The “self-cleavage kobs at 10000 uM GlcN6P” value in data set [7] stood at 0.00565 ± 0.00088 s⁻¹.

With G40U G41A, the kcat in data set [1] amounted to 0.000118 ± 3.1e-06 s⁻¹. Further, the KM in data set [2] stood at 1380 ± 130 µM. Further, the “self-cleavage kobs at 640 uM GlcN6P” value in data set [5] came to 3.9e-05 ± 1.1e-05 s⁻¹. In addition, the “self-cleavage kobs at 2500 uM GlcN6P” value in data set [6] amounted to 7.51e-05 ± 9.8e-06 s⁻¹. Besides, in data set [7], the “self-cleavage kobs at 10000 uM GlcN6P” value turned out to be 0.000104 ± 9.9e-06 s⁻¹.

As for G29U U65C, the catalytic constant (kcat) in data set [1] was 6.8e-05 ± 1.9e-05 s⁻¹. In data set [6], the “self-cleavage kobs at 2500 uM GlcN6P” value was 6.54e-05 ± 1.3e-05 s⁻¹. In addition, the “self-cleavage kobs at 10000 uM GlcN6P” value in data set [7] is 5.46e-05 ± 1.2e-05 s⁻¹.

Consider A12U U54G, for which the kcat in data set [1] is 0.0434 ± 0.021 s⁻¹. Further, in data set [3], the “self-cleavage kobs at 40 uM GlcN6P” value is 0.00183 ± 0.00035 s⁻¹. Further, the “self-cleavage kobs at 160 uM GlcN6P” value in data set [4] was 0.00452 ± 0.00078 s⁻¹. In addition, the “self-cleavage kobs at 640 uM GlcN6P” value in data set [5] worked out at 0.0495 ± 0.012 s⁻¹. Moreover, the “self-cleavage kobs at 2500 uM GlcN6P” value in data set [6] came to 0.0405 ± 0.019 s⁻¹. For the same variant, the “self-cleavage kobs at 10000 uM GlcN6P” value in data set [7] worked out at 0.0363 ± 0.0092 s⁻¹.

On to C10G C58U, for which the turnover number (kcat) in data set [1] is less than 1e-05 s⁻¹. Moreover, in data set [3], the “self-cleavage kobs at 40 uM GlcN6P” value is less than 1e-05 s⁻¹. Besides, in data set [5], the “self-cleavage kobs at 640 uM GlcN6P” value is less than 1e-05 s⁻¹. Further, the “self-cleavage kobs at 10000 uM GlcN6P” value in data set [7] was less than 1e-05 s⁻¹.

With U54G U57G, the turnover number (kcat) in data set [1] came to 3.71e-05 ± 3.7e-06 s⁻¹. Also, the Michaelis-Menten constant (KM) in data set [2] amounted to 1500 ± 710 µM. In addition, the “self-cleavage kobs at 10000 uM GlcN6P” value in data set [7] was 3.21e-05 ± 1.2e-05 s⁻¹.

As to G41C U45G G66C, the turnover number (kcat) in data set [1] was found to be 4.62e-05 ± 1e-05 s⁻¹. Besides, the “self-cleavage kobs at 10000 uM GlcN6P” value in data set [7] was 2.84e-05 ± 1.2e-05 s⁻¹.

With A20C, the kcat in data set [1] was 0.0144 ± 0.0036 s⁻¹. Also, the KM in data set [2] is 327 ± 110 µM. Besides, the “self-cleavage kobs at 40 uM GlcN6P” value in data set [3] amounted to 0.00153 ± 0.00021 s⁻¹. The “self-cleavage kobs at 160 uM GlcN6P” value in data set [4] is 0.00529 ± 0.0011 s⁻¹. The “self-cleavage kobs at 640 uM GlcN6P” value in data set [5] was 0.00992 ± 0.003 s⁻¹. The “self-cleavage kobs at 2500 uM GlcN6P” value in data set [6] is 0.0111 ± 0.0039 s⁻¹.

In the case of G29C C58U, the catalytic constant (kcat) in data set [1] is 5.79e-05 ± 8.3e-06 s⁻¹. For the same variant, the “self-cleavage kobs at 40 uM GlcN6P” value in data set [3] is less than 1e-05 s⁻¹. In data set [6], the “self-cleavage kobs at 2500 uM GlcN6P” value was 2.68e-05 ± 9.9e-06 s⁻¹. The “self-cleavage kobs at 10000 uM GlcN6P” value in data set [7] came to 4.86e-05 ± 8e-06 s⁻¹.

G32A G38U G59A U65A C70G: the kcat in data set [1] was 1.63e-05 ± 2.9e-06 s⁻¹.

As for A52U U69A, in data set [1], the kcat came out at 5.73e-05 ± 1.5e-05 s⁻¹. For the same variant, in data set [5], the “self-cleavage kobs at 640 uM GlcN6P” value is 4.77e-05 ± 1.1e-05 s⁻¹. For the same variant, the “self-cleavage kobs at 2500 uM GlcN6P” value in data set [6] is 7.38e-05 ± 1.2e-05 s⁻¹. Also, the “self-cleavage kobs at 10000 uM GlcN6P” value in data set [7] turned out to be 3.63e-05 ± 1.2e-05 s⁻¹.

In the case of A6U C71U, in data set [1], the catalytic constant (kcat) was 0.000302 ± 1.3e-05 s⁻¹. In addition, the KM in data set [2] came out at 2710 ± 230 µM. Moreover, the “self-cleavage kobs at 640 uM GlcN6P” value in data set [5] came to 5.53e-05 ± 9.2e-06 s⁻¹. Further, the “self-cleavage kobs at 2500 uM GlcN6P” value in data set [6] is 0.000149 ± 1.7e-05 s⁻¹. In addition, the “self-cleavage kobs at 10000 uM GlcN6P” value in data set [7] was determined as 0.000235 ± 2.4e-05 s⁻¹.

For G41C U47G, the kcat in data set [1] came to 0.000713 ± 0.00028 s⁻¹. For the same variant, in data set [6], the “self-cleavage kobs at 2500 uM GlcN6P” value amounted to 3.37e-05 ± 1.6e-05 s⁻¹. Besides, the “self-cleavage kobs at 10000 uM GlcN6P” value in data set [7] amounted to 0.000117 ± 2.8e-05 s⁻¹.
